The test system of data set [1] is protein kinase M (PKM), catalytic fragment of mixed rat brain PKC isozymes. The experiment in a line: Phosphorylation of peptides by PKM (kinetics). The data set is classed as biochemical. To be noted: for Km: FIG. 15C. On the procedure: Phosphorylation of peptides and proteins--Peptides were phosphorylated by the purified catalytic fragment of mixed rat brain PKC isozymes (protein kinase M; PKM). In all cases involving kinetic measurements, the peptides were phosphorylated by PKM (1:120 dilution of frozen stock solution) at 30° C. All reactions were performed in the linear range of peptide phosphorylation, in an assay mixture containing 40 mM Hepes (pH 7.4), 0.25 mM EGTA, 12.5 mM MgCl2, 75 μM y-[^32 P]ATP, and various concentrations of peptides. In the peptide experiments, the reactions were stopped after 10 minutes by the addition of 1/5 vol of 5×SDS sample buffer, boiled for 5 minutes and then subjected to electrophoresis on 20% acrylamide gels. After the gels were dried, the phosphorylated peptides were localized by autoradiography, excised from the gel, and subjected to Cerenkov scintillation counting.

The target of data set [2] is protein kinase M (PKM), catalytic fragment of mixed rat brain PKC isozymes. The experiment in a line: Inhibition of PKM phosphorylation of histone IIIS. The format is biochemical. The note with it: histone IIIS as substrate, 10 minute reaction; read-out: half-maximal inhibition of PKM. On the procedure: When the inhibitory effects of the DGK A/S peptide were assayed, histone IIIS (final concentration 20 μg/ml or as specified) was used as a substrate for PKM (1:80 dilution of frozen stock) in the reaction mixture described above. The reaction was linear for at least 40 minutes at 30° C.; 10 and 15 minute time points were chosen to evaluate inhibitory effects of the peptide. The peptide was added to the reaction mixture for 10 min at 30° C. in a shaking water bath before the reactions were started by the addition of Mg/ATP; samples were assayed using filter papers (P81, Whatman) and trichloroacetic acid precipitation.

Data set [3] deals with T1, DGK.zeta.-2 (Homo sapiens, UniProt Q13574).
T1 construct: the DGK.zeta.-2 cDNA was subcloned into an expression vector and transfected into COS-7 cells; expressed in transfected cells; host or cells: COS-7
T1 sequence (Q13574 1-1117 isoform Q13574-1 Q21R/L159V/L166C/L167C): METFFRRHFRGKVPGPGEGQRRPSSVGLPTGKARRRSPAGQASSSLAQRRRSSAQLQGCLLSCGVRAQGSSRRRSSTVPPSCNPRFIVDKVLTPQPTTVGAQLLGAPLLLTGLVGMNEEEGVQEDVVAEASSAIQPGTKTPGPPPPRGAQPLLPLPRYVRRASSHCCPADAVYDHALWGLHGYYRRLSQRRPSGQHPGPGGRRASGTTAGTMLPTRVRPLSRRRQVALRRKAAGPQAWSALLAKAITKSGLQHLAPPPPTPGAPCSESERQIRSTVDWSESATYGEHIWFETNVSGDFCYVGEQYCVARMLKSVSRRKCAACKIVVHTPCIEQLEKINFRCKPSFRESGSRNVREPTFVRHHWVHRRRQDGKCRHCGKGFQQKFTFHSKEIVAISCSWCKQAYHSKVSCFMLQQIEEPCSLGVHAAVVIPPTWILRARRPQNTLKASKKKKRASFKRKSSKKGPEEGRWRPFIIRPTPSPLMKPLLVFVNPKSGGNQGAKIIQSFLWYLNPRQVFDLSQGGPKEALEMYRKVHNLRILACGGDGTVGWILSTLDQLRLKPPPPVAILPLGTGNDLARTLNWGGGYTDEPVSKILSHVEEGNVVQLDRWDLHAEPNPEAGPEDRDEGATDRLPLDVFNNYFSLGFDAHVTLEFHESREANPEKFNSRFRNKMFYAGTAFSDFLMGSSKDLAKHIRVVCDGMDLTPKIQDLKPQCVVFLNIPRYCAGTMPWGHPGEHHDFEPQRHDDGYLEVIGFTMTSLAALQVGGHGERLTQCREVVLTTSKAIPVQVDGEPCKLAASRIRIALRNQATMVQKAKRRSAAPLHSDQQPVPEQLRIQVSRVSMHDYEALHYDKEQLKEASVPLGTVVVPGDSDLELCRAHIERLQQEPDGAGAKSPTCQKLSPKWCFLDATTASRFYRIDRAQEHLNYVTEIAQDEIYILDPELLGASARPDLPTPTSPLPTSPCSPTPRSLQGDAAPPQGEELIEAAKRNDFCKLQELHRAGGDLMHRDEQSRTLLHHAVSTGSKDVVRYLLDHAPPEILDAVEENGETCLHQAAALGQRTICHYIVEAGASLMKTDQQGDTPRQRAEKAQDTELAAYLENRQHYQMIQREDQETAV
The data set can be described thus: DGK activity assay, homogenates of DGK.zeta.-2-transfected COS-7 cells. The data set is classed as biochemical. Here is the method: DAG Kinase Assay--Cell homogenates were sonicated twice with 5 watts for 5 at 4° C. The protein concentration of each cell homogenate was measured following trichloracetic acid precipitation utilizing the BCA protein assay reagent (Pierce). Each assay contained 50 mM MOPS, pH 7.2, 100 mM NaCl, 20 mM MgCl2, 1 mM EGTA, 1 mM dithiothreitol, 2 mM 1,2-dieleoyl-an-glycerol, 3.5 mM phosphatidylserine, 75 mM octyl-β-glucopyranoside, 500 μM [γ^32 ]ATP, and 0-20 μg of cell homogenate in a volume of 200 μl. For substrate specificity experiments, various diacylglycerol species were substituted for 1,2-dioleoyl-an-glycerol. The reactions were initiated by the addition of ATP (20-30 μCi/μmol), were incubated for 10 min. At 24° C., and were terminated by the addition of 200 μl of 1% perchloric acid. […] Fifty μl of each sample were counted directly by liquid acintillation spectrometry, and the remainder was applied to a 20×20 cm Silica 60A thin layer chromatography plate (Whatman). […] The region containing phosphatidic acid (as indicated by radiolabeled standards) and the remaining areas of each lane were scraped separately, and the radioactivity was estimated by liquid scintillation spectrometry. The amount of phosphatidic acid formed per reaction was calculated as [2(direct count)(PA cpm)(total lane cpm)]×[mole ATP/cpm]. […]

Data set [4] has as its system protein kinase M (PKM), catalytic fragment of mixed rat brain PKC isozymes. To be noted: comparison values for MARCKS and MRP synthetic peptides; read-out: S0.5 for phosphorylation by PKM; cited from earlier work.
Data set [5] deals with human diacylglycerol kinase ζ (DGKζ) (human).
Data set [6] addresses DGK A/S peptide, the DGK peptide with an alanine substituted for the serine at residue 10 (human).
Data set [7] deals with DGK peptide, 18 amino acid peptide corresponding to residues 256-273 of DGKζ (human).
Data set [8] has as its target protein kinase M (PKM), purified catalytic fragment of mixed rat brain PKC isozymes (rat).

Where two headings read alike, the source gives them in different places.

In the case of “DGK(A/S) peptide: same peptide with an alanine substituted for the serine at residue 10 (SEQ ID NO: 16) (KASKKKKRAAFKRKSSKK)”, the “rate of phosphorylation relative to native peptide” value in data set [1] (0.2 mM peptide, identical conditions) is “approximately 1/6”. Besides, the Km is greater than 800 µM in data set [1] (read-out: Km of possible second, still lower affinity site) and roughly 50 µM in data set [1] (initial portion of the rectangular hyperbola, read-out: Km as substrate for PKM). In data set [2], the IC50 is roughly 800 nM.
With “DGK.zeta.-2: alternatively spliced muscle form of DGK.zeta., 1,117 amino acid protein (SEQ ID NO: 6)”, the DGK activity in data set [3] (1,2-dicapryl-sn-glycerol substrate, typical experiment, FIG. 21) was found to be 6.8 nmol/mg/min. In addition, the “DAG kinase activity relative to vector alone” value in data set [3] (transfected COS-7 homogenates) is on record as “more than 50 fold”.
As to “MARCKS: MARCKS synthetic peptide phosphorylated by PKM (KASKKKKRASFKRKSSKK)”, the Km in data set [4] is 20 nM.
Regarding “human protein kinase C γ (PKCγ) (from UniProt P05129) (enzyme)”, the nuclear localization of DGKζ by subcellular fractionation and immunoblotting in data set [5] is greater than 50%.
With “protein kinase M (PKM), purified catalytic fragment of mixed rat brain PKC isozymes (pool or library)”, in data set [6], the Km of a possible second phosphorylation site was greater than 800 µM and the Km of phosphorylation of the peptide by PKM turned out to be 50 µM. In data set [7], the Km of phosphorylation of the peptide by PKM worked out at 500 nM.
In data set [8], KASKKKKRAAFKRKSSKK [DGK A/S peptide, the DGK peptide with an alanine substituted for the serine at residue 10] yielded a half-maximal inhibition of PKM phosphorylation of histone IIIS of 800 nM.

These data come from patent US5976875A, “Diacylglycerol kinase isoforms epsilon and zeta and methods of use thereof” (priority 1997, dated 1999).
